This is an account of results in paper PMC4383634, “Dual-Specificity Anti-sigma Factor Reinforces Control of Cell-Type Specific Gene Expression in Bacillus subtilis” (PLoS Genetics, 2015).

Holding throughout (conditions): both partners purified
Test [1] has as its target T1, GST-σ^E fusion protein, lacking its pro region (sigma fragment a) (B. subtilis, UniProt P06222 30-239).
T1 construct: source: E. coli, overproduced and partially purified; not shown: GST, N-terminal, kept
T1 sequence (looked up): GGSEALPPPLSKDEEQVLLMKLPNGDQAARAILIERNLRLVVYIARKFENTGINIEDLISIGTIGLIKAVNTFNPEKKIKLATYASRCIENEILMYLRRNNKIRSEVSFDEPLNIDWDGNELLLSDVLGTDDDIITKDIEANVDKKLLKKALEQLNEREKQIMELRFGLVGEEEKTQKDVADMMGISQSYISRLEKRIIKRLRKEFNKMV
The test can be described thus: pull-down; GST or GST-σ^E fusions on glutathione beads incubated with CsfB-Strep II (100 nM); after washing, eluted proteins immunoblotted with anti-Strep II tag antibody.

Test [2] concerns the target T2, GST-σ^(E 30–141) (B. subtilis, UniProt P06222 30-141).
T2 construct: also called fragment c; regions 2.1 through 2.4; source: E. coli, overproduced and partially purified; not shown: GST, N-terminal, kept
T2 sequence (looked up): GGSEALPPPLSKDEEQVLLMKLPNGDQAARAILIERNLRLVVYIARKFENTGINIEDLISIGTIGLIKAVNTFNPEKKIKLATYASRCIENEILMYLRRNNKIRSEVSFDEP
The test is described as above.

The target of test [3] is T3, GST-σ^(E 30–172) (B. subtilis, UniProt P06222 30-172).
T3 construct: σ^E of B. subtilis, residues 30-172, regions 2.1 through 3.1; also called fragment d; regions 2.1 through 3.1; source: E. coli, overproduced and partially purified; not shown: GST, N-terminal, kept
T3 sequence (looked up): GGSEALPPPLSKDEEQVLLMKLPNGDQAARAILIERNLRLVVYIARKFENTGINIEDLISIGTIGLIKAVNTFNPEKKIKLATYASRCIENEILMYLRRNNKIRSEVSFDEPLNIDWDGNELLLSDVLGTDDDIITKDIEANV
Described as above.

The target in test [4] is T4, σ^E, untagged, lacking its pro-sequence (B. subtilis, UniProt P06222 30-239).
T4 construct: printed molecular weight 29 kDa; a tag was perhaps removed; also called purified σ^E; source: E. coli, overproduced, purified
T4 sequence (looked up): T1 sequence (looked up)
Nature of the test: pull-down; Ni2+-NTA affinity chromatography: His6-CsfB held on the column, untagged purified σ^E or σ^K applied, eluted with an imidazole buffer, SDS-PAGE and Coomassie staining.

B1: CsfB-StrepII-tagged protein (natural protein, B. subtilis, UniProt P37534 1-64, looked up)
chain: MDETVKLNHTCVICDQEKNRGIHLYTKFICLDCERKVISTSTSDPDYAFYVKKLKSIHTPPLYS
notes: CsfB (Gin), anti-sigma factor of B. subtilis; source: E. coli, overproduced and partially purified; not shown: Strep II tag, C-terminal, kept
As for B1, the binding result in test [1], in test [2] and in test [3] was “binds” in each case.

B2: His6-CsfB (natural protein, B. subtilis, UniProt P37534 1-64, looked up)
chain: B1 chain
notes: CsfB (Gin), anti-sigma factor of B. subtilis; the plasmid is described in S1 Text; also called purified CsfB; source: E. coli, overproduced, purified (Ni-NTA, Superdex 75); not shown: His6, N-terminal, kept
In the case of B2, in test [4], the binding result is given as “binds”.
